What was measured:
[1] = target: T1, TRC-1 (p21SNF1/JunB heteromultimer) (Homo sapiens) (UniProt Q9NR55+P17275); experiment: competition; conditions: vs 12.5-fold for s2
T1 sequence 1: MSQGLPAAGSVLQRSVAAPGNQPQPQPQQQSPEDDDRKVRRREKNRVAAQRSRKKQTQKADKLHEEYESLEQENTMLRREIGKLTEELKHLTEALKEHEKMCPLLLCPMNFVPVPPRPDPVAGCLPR
T1 sequence 2: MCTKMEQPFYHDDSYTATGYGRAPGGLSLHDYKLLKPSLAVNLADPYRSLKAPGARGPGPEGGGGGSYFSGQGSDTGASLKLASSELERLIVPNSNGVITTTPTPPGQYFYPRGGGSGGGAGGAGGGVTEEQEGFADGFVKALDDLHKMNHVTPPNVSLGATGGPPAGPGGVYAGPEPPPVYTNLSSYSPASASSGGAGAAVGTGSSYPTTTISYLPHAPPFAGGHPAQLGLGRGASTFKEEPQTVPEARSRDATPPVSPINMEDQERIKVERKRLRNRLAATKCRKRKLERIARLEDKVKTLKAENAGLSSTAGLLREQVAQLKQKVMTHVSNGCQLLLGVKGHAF

[2] = target: T1, TRC-1 (p21SNF1/JunB heteromultimer) (Homo sapiens); experiment: EMSA; conditions: self-competition; abolished at 100-fold
[3] = target: Tax-response complex-1 (TRC-1), purified from SLB-I nuclear extract (human) (UniProt P17275)

| Substance | binding signal (fold excess for ~55% competition) [1] | other results |
| --- | --- | --- |
| HTLV-1 LTR 21-bp repeat site1 (s1) | 100 | – |
| HTLV-1 LTR 21-bp repeat site2 (s2) | – | binding signal (% competition at 12.5-fold excess) [2]: 55 |
| HTLV-1 LTR 21-bp repeat site3 (s3) | 50 | – |
| HTLV-1 Tax protein, expressed in bacteria as a His6 fusion at its carboxy terminus (from UniProt P03409) | – | binding of purified TRC-1 to site2 probe in EMSA, phosphorimage analysis [3]: 2.5 to 6.5 fold |

From patent publication US5693759
